Data on three proteins can be found in publication PMC11655445.

Holding throughout (settings): glycan lost; control: WT PTTG1IP-GFP
Series [1] is described as follows: anti-GFP Western blot of cell lysates. Background: In western blotting, separated proteins are transferred to a membrane and probed.
Series [2] is described as follows: anti-GFP Western blot of isolated EVs.
Series [3] is described as follows: single-vesicle analysis, GFP+ EVs in conditioned media.
The nature of series [4]: median fluorescence intensity of GFP+ EVs.

B1: PTTG1IP (pituitary tumor-transforming gene 1 protein-interacting protein): 2NQ (protein)
parent chain: MAPGVARGPTPYWRLRLGGAALLLLLIPVAAAQEPPGAACSQNTNKTCEECLKNVSCLWCNTNKACLDYPVTSVLPPASLCKLSSARWGVCWVNFEALIITMSVVGGTLLLGIAICCCCCCRRKRSRKPDRSEEKAMREREERRIRQEERRAEMKTRHDEIRKKYGLFKEENPYARFENN
Regarding B1, the expression_or_secretion entry in series [1] was “no change”. For the same protein, in series [2], the localisation_or_trafficking entry is “decreases”. In series [3], the “localisation_or_trafficking, other: % GFP+ vesicles” value is given as “decreases, 27.2 vs 84”. In addition, the localisation or trafficking, percent of wt in series [4] was found to be 48%.

B2: PTTG1IP (pituitary tumor-transforming gene 1 protein-interacting protein): N54Q (protein)
parent chain: B1 parent chain
For B2, the expression_or_secretion entry in series [1] is “no change”. Besides, the “localisation_or_trafficking, other: % GFP+ vesicles” value in series [3] is reported as “decreases, 45.7 vs 84”.

B3: PTTG1IP (pituitary tumor-transforming gene 1 protein-interacting protein): N45Q (protein)
parent chain: B1 parent chain
For the protein B3, the expression_or_secretion entry in series [1] was “no change”. The “localisation_or_trafficking, other: % GFP+ vesicles” value in series [3] is listed as “decreases, 43.6 vs 84”.
